Laboratory results as given in patent publication US20120134997A1 (COMPUGEN, published 2012).

Biological target: T1, B7H4-Ig (R&D Systems, Inc. cat.#4206-B7) (mouse, UniProt Q7TSP5 29-256)
T1 construct: Bought reagent; also called Recombinant mouse B7-H4 protein (R&D Systems, CAT #4206-B7); not shown: Ig part of the bought fusion; not described
T1 sequence (looked up): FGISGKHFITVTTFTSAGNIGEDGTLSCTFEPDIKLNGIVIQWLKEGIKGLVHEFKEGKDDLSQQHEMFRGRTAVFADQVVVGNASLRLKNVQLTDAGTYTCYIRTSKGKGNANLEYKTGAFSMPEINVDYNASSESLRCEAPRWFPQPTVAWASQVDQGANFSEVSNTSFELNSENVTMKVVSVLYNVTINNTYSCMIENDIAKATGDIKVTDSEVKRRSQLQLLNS
Assay: BIAcore 3000 surface plasmon resonance; Fc fused AI216611 ECD (SEQ ID NO:104) immobilised directly on a CM5 chip (400-500 RU), B7H4-Ig injected at 5 and 10 µM, empty flow cell subtracted
Method: Solution containing two different concentrations of B7H4-Ig (5 and 10 micro molar) was injected. As control, the solutions were also injected onto an empty flow cell with no ligand immobilized.
Data was analyzed using BIAevaluation software ([…].). A zero baseline level was obtained by subtracting the background responses from injection of the analytes through a control flow cell with no ligand immobilized.

binding result: binds
B1: AI216611_T0_P0_ECD_mFc (Fc fused AI216611 ECD, SEQ ID NO:104) (Fc fusion)
chain: LQSQGVSLYIPQATINATVKEDILLSVEYSCHGVPTIEWTYSSNWGTQKIVEWKPGTQANISQSHKDRVCTFDNGSIQLFSVGVRDSGYYVITVTERLGSSQFGTIVLHVSEILYEDGSENLYFQGSGEPRGPTIKPCPPCKCPAPNLLGGPSVFIFPPKIKDVLMISLSPIVTCVVVDVSEDDPDVQISWFVNNVEVHTAQTQTHREDYNSTLRVVSALPIQHQDWMSGKEFKCKVNNKDLPAPIERTISKPKGSVRAPQVYVLPPPEEEMTKKQVTLTCMVTDFMPEDIYVEWTNNGKTELNYKNTEPVLDSDGSYFMYSKLRVEKKNWVERNSYSCSVVHEGLHNHHTTKSFSRTPGK
notes: also called AI216611-ECD-Fc
